The values that follow come from patent US20080044405A1 (Harvard, published 2008).

Experiment [1] concerns the target T1, HLA-DR1 (soluble, produced by Drosophila S2 cell lines) (human). Kind of experiment: fluorescence polarization, DR1-CLIP-AlexaFluor488 0.1 uM at 37 C in the presence of 100 uM KAuCl4, no DM, no excess HA peptide.
For experiment [2], the target named is T1, HLA-DR1 (soluble, produced by …). Put plainly: fluorescence polarization, DR1-CLIP-AlexaFluor488 0.1 uM at 37 C in the presence of 100 uM K2PdCl4, no DM, no excess HA peptide.
Experiment [3] has the same target. Put plainly: fluorescence polarization, DR1-CLIP-AlexaFluor488 0.1 uM at 37 C in the presence of 100 uM K2PtCl4, no DM, no excess HA peptide. (In general: In fluorescence polarisation assays a small probe gives low polarisation when free and higher when bound to something large.)
Experiment [4] shares this target. Kind of experiment: fluorescence polarization, DR1-CLIP-AlexaFluor488 0.1 uM at 37 C in the presence of 100 uM cisplatin, no DM, no excess HA peptide.
The target is the same in experiment [5]. Put plainly: fluorescence polarization, DR1-CLIP-AlexaFluor488 0.1 uM at 37 C with DM (0.1 uM) and excess unlabeled HA peptide (100 uM), no metal.
For experiment [6] the target is unchanged. Kind of experiment: fluorescence polarization, DR1-CLIP-AlexaFluor488 0.1 uM at 37 C without DM, with excess unlabeled HA peptide (100 uM), no metal (intrinsic dissociation).

B1: Alexa-Fluor 488-labeled CLIP peptide (peptide)
peptide: CPVSKMRMATPLLMQA
modifications: Cys labelled with AlexaFluor 488 C5 maleimide
notes: an N-terminal Cys is added to CLIP(87-101); also called af-CLIP; CLIP-AlexaFluor488
Consider B1, for which the “t1/2 of CLIP dissociation” value in experiment [1] came to 2.76 h; in experiment [2], 1.59 h; in experiment [3], 3.05 h; in experiment [4], 4.34 h; in experiment [5], 8.66 h; in experiment [6] it was 94.6 h.
